# Assay results: patent US20260049134A1 (UNIVERSITY OF FLORIDA RESEARCH FOUNDATION, published 2026)
# Assays:
# [1] = biological target: T1, PTP4A3 (PRL-3); test: ELISA on coated His-PTP4A3, 150 ng IgG1; None 0.085
# T1 construct: coated protein in the ELISA; also called His-PTP4A3 (R&D Systems)
# Method: (§1) Recombinant purified ECDs (50-150 ng) of each putative target protein were coated, incubated with 150 ng of the indicated primary antibody, and binding was detected using a peroxidase-conjugated anti-human Fab secondary antibody. Heatmap represents averages of technical triplicates. (8B) Target validation via siRNA knockdown. H929 cells were transfected with siRNA pools targeting the putative antibody targets ICAM1, CADM1, and PTPRG. Cells were then subjected to cognate IgG binding analysis via flow cytometry. (NT, non-targeting siRNA).
# (§2) ELISA ELISA was conducted as described previously. Briefly, 50-150 ng of antigen was coated overnight in half-area 96-well plates at 4° C., blocked with 3% BSA at 37° C. for 1 h, and 150 ng of chimeric rabbit/human IgG1 was added, incubating for 2 h at 37° C. […] After incubating at 37° C. for 15 min-1 h (depending on intensity of controls), data were acquired using a SpectraMax M5 plate reader (Molecular Devices).
# [2] = biological target: T2, DCC; test: ELISA on coated DCC-His, 150 ng IgG1; None 0.095
# T2 construct: coated protein in the ELISA; also called DCC-His (R&D Systems)
# T2 chain: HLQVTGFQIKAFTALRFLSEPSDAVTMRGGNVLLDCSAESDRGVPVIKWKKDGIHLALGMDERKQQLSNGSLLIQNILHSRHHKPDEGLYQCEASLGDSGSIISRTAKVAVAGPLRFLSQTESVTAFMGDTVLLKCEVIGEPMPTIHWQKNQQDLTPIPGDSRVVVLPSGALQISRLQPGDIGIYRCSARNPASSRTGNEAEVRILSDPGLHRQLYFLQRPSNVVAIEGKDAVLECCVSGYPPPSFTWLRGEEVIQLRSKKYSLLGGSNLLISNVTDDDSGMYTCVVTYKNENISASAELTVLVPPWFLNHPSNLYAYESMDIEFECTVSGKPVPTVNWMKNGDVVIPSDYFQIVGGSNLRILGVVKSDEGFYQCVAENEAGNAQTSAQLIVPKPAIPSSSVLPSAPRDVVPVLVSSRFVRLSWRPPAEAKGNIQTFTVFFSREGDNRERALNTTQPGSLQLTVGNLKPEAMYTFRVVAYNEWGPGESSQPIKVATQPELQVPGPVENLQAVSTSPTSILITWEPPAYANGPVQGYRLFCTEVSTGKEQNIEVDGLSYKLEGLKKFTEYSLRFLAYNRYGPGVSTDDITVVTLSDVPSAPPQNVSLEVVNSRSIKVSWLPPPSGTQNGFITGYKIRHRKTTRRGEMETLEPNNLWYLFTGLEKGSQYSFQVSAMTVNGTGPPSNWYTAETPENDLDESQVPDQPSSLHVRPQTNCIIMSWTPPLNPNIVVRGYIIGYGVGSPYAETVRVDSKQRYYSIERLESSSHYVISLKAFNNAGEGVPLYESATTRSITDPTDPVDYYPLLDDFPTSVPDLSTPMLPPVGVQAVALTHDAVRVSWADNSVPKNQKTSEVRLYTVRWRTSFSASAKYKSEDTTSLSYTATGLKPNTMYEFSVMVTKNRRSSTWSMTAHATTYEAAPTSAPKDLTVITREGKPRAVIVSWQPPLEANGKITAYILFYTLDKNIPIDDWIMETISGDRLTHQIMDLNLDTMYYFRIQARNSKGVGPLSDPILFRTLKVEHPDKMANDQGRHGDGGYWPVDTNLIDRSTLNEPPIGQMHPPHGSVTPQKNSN
# Method: as §1, §2
# [3] = biological target: T3, CADM1-His (Acro Biosystems) (human, UniProt Q9BY67 45-374); test: ELISA on coated CADM1-His, 150 ng IgG1; None 0.059
# T3 construct: Bought; also called CADM1/IGSF4A; not shown: His tag of the bought protein
# T3 sequence: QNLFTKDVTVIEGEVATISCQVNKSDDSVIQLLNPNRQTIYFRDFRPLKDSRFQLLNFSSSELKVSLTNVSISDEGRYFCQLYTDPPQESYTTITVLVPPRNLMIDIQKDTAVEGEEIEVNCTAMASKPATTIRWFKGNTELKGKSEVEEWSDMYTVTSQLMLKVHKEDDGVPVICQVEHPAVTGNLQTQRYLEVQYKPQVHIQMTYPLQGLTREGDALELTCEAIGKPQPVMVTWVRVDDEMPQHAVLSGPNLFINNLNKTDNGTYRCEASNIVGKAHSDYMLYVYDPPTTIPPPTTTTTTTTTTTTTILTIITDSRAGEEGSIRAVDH
# Method: as §1, §2
# [4] = biological target: T4, IL13RA1; test: ELISA on coated IL13RA1-Fc-His
# T4 construct: coated protein in the ELISA; also called IL13RA1-Fc-His (R&D Systems)
# T4 chain: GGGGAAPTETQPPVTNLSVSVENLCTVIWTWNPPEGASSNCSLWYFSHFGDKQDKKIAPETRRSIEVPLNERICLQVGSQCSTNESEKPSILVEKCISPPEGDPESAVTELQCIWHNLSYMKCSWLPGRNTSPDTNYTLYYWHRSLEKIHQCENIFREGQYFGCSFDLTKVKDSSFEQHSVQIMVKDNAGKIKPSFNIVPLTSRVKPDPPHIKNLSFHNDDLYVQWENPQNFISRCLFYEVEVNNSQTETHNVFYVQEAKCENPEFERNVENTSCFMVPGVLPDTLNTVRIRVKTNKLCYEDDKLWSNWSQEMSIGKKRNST
# Method: as §1, §2
# [5] = biological target: T5, IGSF11 (VSIG3); test: ELISA on coated IGSF11-Fc
# T5 construct: coated protein in the ELISA; also called IGSF11-Fc (R&D Systems)
# T5 chain: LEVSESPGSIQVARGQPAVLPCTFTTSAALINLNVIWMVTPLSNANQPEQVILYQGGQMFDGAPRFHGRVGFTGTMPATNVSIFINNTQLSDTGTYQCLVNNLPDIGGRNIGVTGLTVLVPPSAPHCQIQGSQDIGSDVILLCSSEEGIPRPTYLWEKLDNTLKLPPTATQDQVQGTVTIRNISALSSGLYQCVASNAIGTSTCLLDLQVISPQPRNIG
# Method: as §1, §2
# [6] = biological target: T2, DCC; test: ELISA on coated DCC-His
# Method: as §1, §2
# T1 sequence (chain, as listed by the source limits assumed): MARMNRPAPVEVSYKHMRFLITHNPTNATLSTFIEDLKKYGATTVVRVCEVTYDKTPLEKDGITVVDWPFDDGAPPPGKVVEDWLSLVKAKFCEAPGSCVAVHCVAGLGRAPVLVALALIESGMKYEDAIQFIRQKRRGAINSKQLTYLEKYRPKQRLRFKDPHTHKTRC
Binder,ELISA Absorbance (405 nm-570 nm) [1],ELISA Absorbance (405 nm-570 nm) [2],ELISA Absorbance (405 nm-570 nm) [3],binding result [4],binding result [5],binding result [6]
"TH9-0022 (antibody, human IgG1, kappa, L234A L235A, V domains shown, also called TH9-022; negative control) VH: QSLEESGGRLVTPGTPLTLTCTVSGFSLSSYAMNWVRQAPGKGLEWIGIINSYGSTYYASWAKGRFTISKTSTTVDLKITSPTTEDTATYFCARVTYDSYGYGYAPYGMDLWGPGTLVTVSS VL: LVMTQTPSSTSNAVGGTVTIKCQASQSIGNVLAWYQQKPGQPPKLLIYAASTLASGVPSRVGGSRSGTEYTLTISGVQREDAATYYCLGSDSDSDIAFGGGTELEILR",0.092,0.079,0.055,no binding (tested: 150 ng IgG1 per well),no binding (tested: 150 ng IgG1 per well),no binding (tested: 150 ng IgG1 per well)
"HW-56 chimeric rabbit-human IgG1 LA/LA/PG (antibody, V domains shown, Fc-silenced (L234A/L235A/P329G) IgG1, kappa; Alexa Fluor 647-labeled in single-step flow cytometry; Cluster C-45) VH: QSVKESEGGLFKPTDTLTLTCTASGFTVSTNAVTWVRQAPGNGLEYIGTIGRSGSAYFASWAKRRSTLTRDINLNTVTLKMTSLTAADTATYFCVRGSPGYRTAISIWGPGTLVTISS VL: AVMTQTPSSTSAAVEGTVTINCQASQSISNRLSWFQQKPGQPPKLLIYQASTLASGVPSRFKGSGSGTEFTLTISGVQREDAATYYCLGSYSSSDASFGGGTKLEIKR",0.104,0.088,0.059,,no binding (tested: 150 ng IgG1 per well),no binding (tested: 150 ng IgG1 per well)
"HW-16 chimeric rabbit-human IgG1 LA/LA/PG (antibody, V domains shown, Fc-silenced (L234A/L235A/P329G) IgG1, kappa; Alexa Fluor 647-labeled in single-step flow cytometry; Cluster C-45) VH: QSLEESGGRLVTPGTPLTLTCTASGFSLSSYAMSWVRQAPGKGLEWIGTMPTGGGTYYASWAKGRFTISKTSTTVDLQITSPTTEDTATYFCAKHWNIWGPGTLVTISS VL: DIVLTQTPSSTSTAVGDTVTINCRASQSIGRNLAWFQQKPGQPPKLLIYRASNLASGVPSRFKGSGSRTQFTLTISGVQREDAATYYCLGSYSSSDTAFGGGTELEILR",0.105,0.129,0.067,,no binding (tested: 150 ng IgG1 per well),
"HW-42 chimeric rabbit-human IgG1 LA/LA/PG (antibody, V domains shown, Fc-silenced (L234A/L235A/P329G) IgG1, lambda; Alexa Fluor 647-labeled in single-step flow cytometry; Cluster C-1) VH: QSVKESEGGLFKPADTLTLTCTVSGFSLSSNEISWVRQAPGEGLEYIGIIDTGGRAYYAVWARSRSTITRNTNLNTVTLKMTSLTAADTATYFCARGGVDTEWYAFSSWGPGTLVTVPS VL: SFVLTQPASVQVNLGQTVSLTCTADTLSRRYASWYQQKPGQAPVLLIFRDTSRPSGVPDRFSGSSSGDTATLTISGAQAGDEADYYCATSDGSGSNYQYVFGGGTQLTVTG",0.096,0.098,0.061,no binding (tested: 150 ng IgG1 per well),no binding (tested: 150 ng IgG1 per well),no binding (tested: 150 ng IgG1 per well)
"HW-25 chimeric rabbit-human IgG1 LA/LA/PG (antibody, V domains shown, Fc-silenced (L234A/L235A/P329G) IgG1, lambda; Alexa Fluor 647-labeled in single-step flow cytometry; Cluster C-1) VH: QSLEESGGRLVTPGTPLTLTCTVSGFSLSSYAMGWVRQAPGKGLEWIGIIDSRGSTYYATWAKGRFTISKTSTTVDLKITSPTTEDTATYFCAREDSYYYDSFNLWGPGTLVTVSS VL: SFVLTQPASVQVNLGQTVSLTCTADTLSRRYASWYQQKPGQAPVLLIYRDTSRPSGVPDRFSGSSSGNTATLTISGAQAGDEADYYCATSDGSGSSYQCVFGGGTQLTVTG",0.079,0.063,0.045,no binding (tested: 150 ng IgG1 per well),no binding (tested: 150 ng IgG1 per well),no binding (tested: 150 ng IgG1 per well)
"HW-28 chimeric rabbit-human IgG1 LA/LA/PG (antibody, V domains shown, Fc-silenced (L234A/L235A/P329G) IgG1, lambda; Alexa Fluor 647-labeled in single-step flow cytometry; Cluster C-45) VH: QKQLVESGGRLVTPGTPLTLTCTASGFSLSSNAMSWVRQAPGEGLQWIGTISSGGSTYYASWAKGRFTISKTSTTVTLKMTSLTTEDTATYFCARGADLHRLWGPGTLVTVSS VL: SFVLTQPASVQVNLGQTVSLTCTGKPLSRSFASWYQQKPGQAPVLVIYRDTSRPSGVPDRFSGSSSGNTATLTISGAQAGDEADYYCATSDGSGSSYQYVFGGGTQLTVTG",,0.128,,,,
"HW-1 chimeric rabbit-human IgG1 LA/LA/PG (antibody, V domains shown, Fc-silenced (L234A/L235A/P329G) IgG1, lambda; Alexa Fluor 647-labeled in single-step flow cytometry; Prototype of cluster C-1) VH: QSLEESGGGLFKPTDTLTLTCTASGFSLGSSYAISWVRQAPGKELEWIGTIDSGRAYYARWAKSRSTITRNTNENTVTLKMTSLTAADTATYFCARDLIPTYSQDIWGPGTLVTISS VL: SFVLTQPASVQVNLGQTVSLTCTADTLSRRYASWYQQKPGQAPVLLIYRDTSRPSGVPDRFSGSSSGNTATLTISGAQAGDEADYYCATSDGSGNSYQYVFGGGTQLTVTS",0.081,0.068,0.053,no binding (tested: 150 ng IgG1 per well),no binding (tested: 150 ng IgG1 per well),no binding (tested: 150 ng IgG1 per well)
"HW-70 chimeric rabbit-human IgG1 LA/LA/PG (antibody, V domains shown, Fc-silenced (L234A/L235A/P329G) IgG1, lambda; Alexa Fluor 647-labeled in single-step flow cytometry; Cluster C-1) VH: QSLEESGGRLVTPGTPLTLTCTVSGFSLSSNAMSWVRQAPGKGLEWIGTIDGYGYTYYASWAKGRFTVSKTSTTVDLKITSPTTEDTATYFCAREIYLGSNFWGPGTLVTISS VL: SFVLTQPASVQVNLGQTVSLTCTADTLSRRYASWYQQKPGQAPVLLIYRDTSRPSGVPDRFSGSSSGNTATLTISGAQAGDEADYYCATADGSGSSYQFVFGGGTQLTVTG",0.092,0.086,0.053,no binding (tested: 150 ng IgG1 per well),no binding (tested: 150 ng IgG1 per well),no binding (tested: 150 ng IgG1 per well)
